Common to all, as to experiment: ELISA
What all share (design): key to grade: 0 = <0.5 OD, 1 = 0.5-1.0 OD, 4 = 1-4 OD
A general note: ELISA stands for enzyme-linked immunosorbent assay.

For one assay, the target named is T1, 305.
T1 construct: H3-48 L1-40; also called PIN305
An excerpt: (§1) Before specificity screening, all of the clonal immunogen-positive hybridoma supernatants were re-screened on the immunogen, a non-family member Id protein, and KLH, if animals were immunized with Id protein that has been conjugated KLH. As described above, this screen identifies HC-specific clones but not mAbs against the light chain constant region. Clones identified positive to the immunogen and KLH were […]. Those found positive to the immunogen but not to the non-family member Id protein or KLH were tittered on the immunogen. In addition to normalizing for different binding affinities and concentrations, each hybridoma supernatant was titered on the fully human form of the Id protein used as the immunogen(s) for the V regions. The titer or dilution resulting in an ELISA absorbance of 2.5 to 3 OD after 30 min. incubation time was then used. Hybridoma specificity was determined by screening against available Id proteins expressing the same HV and KV or LV as well as different HV, KV and LV. The final ELISA results are expressed as follows: 0 (<0.5 OD), 1 (0.5-1.0 OD), or 4 (1-4 OD). Positive hybridoma supernatants are categorized according to specificity: anti-Id, anti-constant region (HC, KC or LC), or V region (HV, KV, LV family or family member).
(§2) In general, the fully human Id protein or proteins containing the immunogen V regions were coated onto 96-well ELISA plates at 2.5-5 ug/mL in carbonate buffer pH 9.6 and incubated at 4° C. for up to 14 days. On the day of the ELISA, plates were brought to RT and blocked with Tris-Tween-20, pH 7.6 for 15-60 min. at RT. Following a NaCl and Triton X-100 wash, diluted hybridoma cell culture supernatants were incubated overnight at 4° C. Hybridoma supernatant dilutions ranged from 1:2 to 1:25 and were prepared in PBS with 5% BSA. Plates were washed and incubated with HRP-conjugated goat anti-mouse IgG-specific detecting antibody. A chromogenic substrate (TMB) was used to measure the amount of mouse antibody bound to each well. The reaction was stopped at or before 30 minutes with IN H2SO4 and plates were read immediately. Absorbency readings at 450 nm ranging between 0-4 OD and using Molecular Devices plate reader and SOFTMAX PRO software.

The next assay concerns the target T2, 1131.
T2 construct: H4-31 L3-25; also called PIN1131
Source text: as §1, §2

For another assay, the target named is T3, 662.
T3 construct: fully human Id protein; also called PIN662
Source text: as §1, §2

The next assay addresses T4, 746.
T4 construct: H4-39 L2-8; also called PIN746
Source text: as §1, §2

A further assay deals with T5, 604.
T5 construct: H4-34 L2-8; also called PIN604
Source text: as §1, §2

The next assay concerns the target T6, 116.
T6 construct: fully human Id protein; also called PIN116
Source text: as §1, §2

The next assay deals with T7, 102.
T7 construct: H1-18 L1-44; also called PIN102
Source text: as §1, §2

Another assay deals with T8, 733.
T8 construct: H3-48 L2-14; also called PIN733
Source text: as §1, §2

For a further assay, the target named is T9, 747.
T9 construct: H3-23 L2-14; also called PIN747
Source text: as §1, §2

The next assay concerns the target T10, 551.
T10 construct: H3-23 L1-40; also called PIN551
Source text: as §1, §2

The next assay has as its target T11, 625.
T11 construct: H4-61 L2-8; also called PIN625
Source text: as §1, §2

A further assay has as its target T12, 1167.
T12 construct: H3-23 L2-14; also called PIN1167
Source text: as §1, §2

In the next assay the target is T13, 1067.
T13 construct: H1-8 L2-23; also called PIN1067
Source text: as §1, §2

The target of another assay is T14, 796.
T14 construct: H3-23 L3-25; also called PIN796
Source text: as §1, §2

The next assay deals with T15, 1060.
T15 construct: H4-39 L2-23; also called PIN1060
Source text: as §1, §2

A further assay deals with T16, 710.
T16 construct: H1-8 L2-8; also called PIN710
Source text: as §1, §2

Another assay addresses T17, 1056.
T17 construct: H3-48 L2-14; also called PIN1056
Source text: as §1, §2

The next assay addresses T18, 196.
T18 construct: H4-31 L2-23; also called PIN196
Source text: as §1, §2

A further assay has as its target T19, 1089.
T19 construct: H3-73 L2-23; also called PIN1089
Source text: as §1, §2

T3 sequence (heavy, as listed by the source): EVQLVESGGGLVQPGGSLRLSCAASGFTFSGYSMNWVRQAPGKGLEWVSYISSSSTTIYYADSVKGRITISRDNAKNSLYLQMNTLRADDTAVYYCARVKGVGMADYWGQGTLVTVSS
T6 sequence (VH, as listed by the source, chain 1 of 2): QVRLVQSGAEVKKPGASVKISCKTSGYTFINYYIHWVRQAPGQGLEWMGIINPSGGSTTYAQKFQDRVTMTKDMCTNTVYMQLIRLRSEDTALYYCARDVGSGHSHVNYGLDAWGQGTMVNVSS
T6 sequence (V domain, as listed by the source, chain 2 of 2): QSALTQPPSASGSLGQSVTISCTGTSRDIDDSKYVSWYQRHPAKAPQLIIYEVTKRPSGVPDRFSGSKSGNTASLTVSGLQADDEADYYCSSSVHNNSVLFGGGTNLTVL

B1: mAb clone 4H11 (antibody, V domains shown)
VH: EVKLVESGGGLVKPGGSLKLSCAASGFAFSNYDMSWVRQTPEKRLEWVATIRSDDSYTYYPDSVKGRFTISRDNARNTLYLQMSSLRSEDTAFYYCARREGNYAMDYWGQGTSVTVSS
VL: DIQMTQSPASLSVSVGETVTITCRASENIYSYLAWYQQKKGKSPQLLVYAATNLGDGVPTRFSGSGSGTQYSLKINSLQSEDFGSYYCQHFWGNPLTFGAGTKLELKR
notes: Mouse hybridoma mAb
Take B1: the grade was found to be 4 with 305; 4 with 1131; 4 with 662; 1 in the assay with 746; 4 in the assay with 604; 4 with 102. Moreover, the grade is 4 with 733; 1 with 747; 4 with 551; 4 with 625; 4 with 1167; 4 with 1067. Moreover, the grade with 796, in the assay with 1060, with 710, in the assay with 1056, with 196 and with 1089 was 4 each time. In addition, the binding result with 116 was “no binding”.
